Consider two molecules from article PMC2797645, “Structure of the HCMV UL16-MICB Complex Elucidates Select Binding of a Viral Immunoevasin to Diverse NKG2D Ligands” (PLoS Pathogens, 2010).

B2: UL16 ectodomain, monomeric, untagged (domain or fragment)
chain: VDLGSKSSNSTCRLNVTELASIHPGETWTLHGMCISICYYENVTEDEIIGVAFTWQHNESVVDLWLYQNDTVIRNFSDITTNILQDGLKMRTVPVTKLYTSRMVTNLTVGRYDCLRCENGTTKIIERLYVRLGSLYPRPPGSGLAKHPSVSADEELSA
modifications: N-linked glycans; N-acetylglucosamine seen at asparagines 35, 41, 68, 84, 95, 101 and 132 in the crystal (after EndoH)
notes: UL16 of human cytomegalovirus, ectodomain residues 27-184; the cDNA construct also held the N-terminal signal peptide (residues 1-26), then a thrombin cleavage site and human IgG1-Fc; Residues of the thrombin site may remain at the C-terminus after cleavage; For the crystal the complex was partly deglycosylated with EndoH after complex formation; for SPR the glycosylated protein was used; also …

The target in experiment [1] is B2. Kind of experiment: SPR; MICBpf or MICB α1-α3 covalently immobilised on a CM5 chip by amine coupling; untagged monomeric UL16 as analyte, 50 µl/min; kinetic fit (1:1 binding with mass transfer) and equilibrium fit (1:1 Langmuir isotherm); chip not regenerated. The conditions noted are these: both partners purified.
The target of experiment [2] is T1, MICB*02 α1α2-platform domain (MICBpf) (human).
T1 chain: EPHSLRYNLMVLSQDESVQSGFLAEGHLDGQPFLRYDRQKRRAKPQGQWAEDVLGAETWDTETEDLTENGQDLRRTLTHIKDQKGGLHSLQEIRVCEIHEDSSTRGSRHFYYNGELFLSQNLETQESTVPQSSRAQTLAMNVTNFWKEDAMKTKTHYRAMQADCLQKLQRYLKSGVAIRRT
Kind of experiment: SPR; kinetic fit.

The target of experiment [3] is T2, MICB*02 ectodomain (domains α1, α2 and α3) (human, UniProt Q29980 23-298).
T2 chain: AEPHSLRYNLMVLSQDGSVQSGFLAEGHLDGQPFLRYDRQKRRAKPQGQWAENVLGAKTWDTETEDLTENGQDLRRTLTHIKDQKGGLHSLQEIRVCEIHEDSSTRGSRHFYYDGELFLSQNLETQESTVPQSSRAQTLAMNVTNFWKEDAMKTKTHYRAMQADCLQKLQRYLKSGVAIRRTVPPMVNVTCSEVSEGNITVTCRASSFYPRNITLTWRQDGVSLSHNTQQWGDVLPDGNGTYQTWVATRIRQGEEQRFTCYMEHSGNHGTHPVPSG
Kind of experiment: SPR; kinetic fit. On the technique in general: Surface plasmon resonance follows binding to a sensor surface in real time, without labels.

A further experiment concerns the target T3, Fc-tagged ULBP1 (human, UniProt Q9BZM6 26-216).
T3 construct: ULBP1 (RAET1I), human NKG2D ligand; Captured by its Fc on a Protein A-G chip; also called RAET1I; source: bought: R&D Systems
T3 sequence: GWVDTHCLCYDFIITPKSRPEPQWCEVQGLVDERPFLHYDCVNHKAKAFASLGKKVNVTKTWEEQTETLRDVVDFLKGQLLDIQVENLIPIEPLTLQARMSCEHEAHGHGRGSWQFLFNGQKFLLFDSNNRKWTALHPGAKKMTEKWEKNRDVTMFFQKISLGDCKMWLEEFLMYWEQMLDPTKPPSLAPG
Kind of experiment: SPR; Fc-tagged ULBP ligands captured on a Protein A-G CM5 chip, diluted in HBS-EP pH 7.4 at 25°C; untagged monomeric UL16 as analyte, 50 µl/min; regeneration with 10 mM glycine pH 1.7. The conditions noted are these: both partners purified.

The target in the next experiment is T4, Fc-tagged ULBP2 (human, UniProt Q9BZM5 26-217).
T4 construct: ULBP2 (RAET1H), human NKG2D ligand; Captured by its Fc on a Protein A-G chip; also called RAET1H; source: bought: R&D Systems
T4 sequence: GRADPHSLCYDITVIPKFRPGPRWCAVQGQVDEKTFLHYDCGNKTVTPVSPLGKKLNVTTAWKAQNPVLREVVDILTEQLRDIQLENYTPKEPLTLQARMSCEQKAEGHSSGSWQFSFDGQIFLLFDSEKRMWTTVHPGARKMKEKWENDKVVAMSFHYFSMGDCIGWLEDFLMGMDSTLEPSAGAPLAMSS
The description is as above. The conditions noted are these: both partners purified.

For experiment [4], the target named is T5, MICB*02 ectodomain (domains α1, α2 and α3) (human, UniProt Q29980 23-298).
T5 construct: also called complete MICB ectodomain; MICBα1α3
T5 sequence: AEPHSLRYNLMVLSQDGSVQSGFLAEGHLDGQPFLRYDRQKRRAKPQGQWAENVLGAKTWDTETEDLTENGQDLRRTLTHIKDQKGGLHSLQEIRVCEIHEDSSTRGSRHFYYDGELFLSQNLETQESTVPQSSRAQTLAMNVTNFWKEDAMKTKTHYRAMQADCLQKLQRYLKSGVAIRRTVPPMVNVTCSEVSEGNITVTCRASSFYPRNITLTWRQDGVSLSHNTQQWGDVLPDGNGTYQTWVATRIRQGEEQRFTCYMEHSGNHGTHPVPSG
Kind of experiment: SPR; MICBpf or MICB α1-α3 covalently immobilised on a CM5 chip by amine coupling; untagged monomeric UL16 as analyte, 50 µl/min; kinetic fit (1:1 binding with mass transfer) and equilibrium fit (1:1 Langmuir isotherm); chip not regenerated. The conditions noted are these: both partners purified.

B1: MICB*02 α1α2-platform domain (MICBpf) (domain or fragment)
chain: EPHSLRYNLMVLSQDESVQSGFLAEGHLDGQPFLRYDRQKRRAKPQGQWAEDVLGAETWDTETEDLTENGQDLRRTLTHIKDQKGGLHSLQEIRVCEIHEDSSTRGSRHFYYNGELFLSQNLETQESTVPQSSRAQTLAMNVTNFWKEDAMKTKTHYRAMQADCLQKLQRYLKSGVAIRRT
Regarding B1, binding in experiment [1] was put at a Kd of 66 nM.

In the case of B2, the koff in experiment [2] is 0.054 s⁻¹; in experiment [3] it was 0.045 s⁻¹. In addition, the Kd in the experiment with Fc-tagged ULBP1 was 12 nM; in experiment [4], 67 nM. In addition, the binding result with Fc-tagged ULBP2 is recorded as “binds”.

In general, Kd refers to the constant that tells how readily two partners part at equilibrium. A higher Kd goes with lower affinity. As usually defined, the koff is the first-order rate constant of dissociation.
